For this data set, the target named is interleukin-10 (IL-10) (UniProt P22301 19-178). Nature of the data set: luminescence quenching on Y-MOF; 1 uM protein; no obvious quenching at 514 nm; Y-MOF suspension 0.1 g/L (900 uL) mixed with 1 uM DNA (100 uL) 30 min; excitation 380 nm, IL-6 0-14.4 nM; buffer, salt, pH and temperature not stated. As to conditions: protein: commercial; chain copies: 2; label: 5'-FAM; stem-loop.
interleukin-10 (IL-10), sequence (P22301 19-178): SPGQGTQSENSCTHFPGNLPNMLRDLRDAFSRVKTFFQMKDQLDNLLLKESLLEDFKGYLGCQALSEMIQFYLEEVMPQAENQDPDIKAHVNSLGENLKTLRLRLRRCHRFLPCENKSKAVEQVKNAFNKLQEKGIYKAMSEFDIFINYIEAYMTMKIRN

B1: S2 (extended IL-6 aptamer) (structured_DNA)
DNA: TTTTTTTAAGCTTACCTGCCATGCCAGTACCCCCAGGAGAAGATTCCAAAGATGTGGCCGCCCCACAAAAAAAA
B1: the binding result is on record as “no binding”.

These data come from publication PMC10207894, “A MOF/DNA luminescent sensing platform for detection of potential COVID-19 biomarkers and drugs†”.
